Experimental data as given in the supplement of paper PMC7125110.
± gives the standard error. This sample holds only a part of the variants without activity.

B1: glmS ribozyme (parent)
chain: AUAAAAGCGCCAGAACUACAGAAAUGUAGUUGACGAGGAGGAGGUUUAUCGAAUUUUCGGCGGAUGCCUCCAAA

Columns and labels:
Settings in all cases: with glucosamine-6-phosphate
glucosamine-6-phosphate [1] = variants of: B1; experiment: self-cleavage kobs at 40 uM GlcN6P; higher = faster cleavage; RNA array
How it was run: (§1)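 E. coli RNA polymerase transcribed barcoded ribozyme variants in situ on sequenced MiSeq chips, which were tracked via a hybridised Cy3 probe at 37 °C. Tiles were imaged over ~14 h after glucosamine-6-phosphate (40 μM to 10 mM) in HEPES/KCl/Mg(OAc)2 buffer was flowed in. Normalised per-tile medians were fit to one- or two-exponential decays for kobs, and kcat and KM came from weighted Michaelis–Menten fits.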

glucosamine-6-phosphate [2] = variants of: B1; experiment: self-cleavage kobs at 10000 uM GlcN6P; higher = faster cleavage; RNA array
How it was run: as §1

glucosamine-6-phosphate [3] = variants of: B1; experiment: self-cleavage kobs at 640 uM GlcN6P; higher = faster cleavage; RNA array
How it was run: as §1

glucosamine-6-phosphate [4] = variants of: B1; experiment: self-cleavage kobs at 2500 uM GlcN6P; higher = faster cleavage; RNA array
How it was run: as §1

glucosamine-6-phosphate [5] = variants of: B1; experiment: self-cleavage kobs at 160 uM GlcN6P; higher = faster cleavage; RNA array
How it was run: as §1

Variant | self-cleavage kobs at 40 uM GlcN6P (glucosamine-6-phosphate [1]) | self-cleavage kobs at 10000 uM GlcN6P (glucosamine-6-phosphate [2]) | self-cleavage kobs at 640 uM GlcN6P (glucosamine-6-phosphate [3]) | self-cleavage kobs at 2500 uM GlcN6P (glucosamine-6-phosphate [4]) | self-cleavage kobs at 160 uM GlcN6P (glucosamine-6-phosphate [5])
A15U G29U U54G | 7.25e-05 ± 1.8e-05 s⁻¹ | 0.00243 ± 0.00048 s⁻¹ |  |  | 
A14G U69C C70U | 0.000104 ± 3.2e-05 s⁻¹ | 0.00316 ± 0.00074 s⁻¹ |  |  | 
A14U G29C G38U C50G | 0.000223 ± 7.2e-05 s⁻¹ | 7.38e-05 ± 1.8e-05 s⁻¹ |  |  | 
G29A G38A A39U | < 1e-05 s⁻¹ | < 1e-05 s⁻¹ | < 1e-05 s⁻¹ |  | 
C8A A33U G40A A64G C68A | < 1e-05 s⁻¹ | < 1e-05 s⁻¹ | < 1e-05 s⁻¹ | < 1e-05 s⁻¹ | 
A48G C50A | < 1e-05 s⁻¹ |  | < 1e-05 s⁻¹ | < 1e-05 s⁻¹ | < 1e-05 s⁻¹
G44U A64U | < 1e-05 s⁻¹ | < 1e-05 s⁻¹ | < 1e-05 s⁻¹ | < 1e-05 s⁻¹ | < 1e-05 s⁻¹
A6G U31A G32U | < 1e-05 s⁻¹ | < 1e-05 s⁻¹ | < 1e-05 s⁻¹ | < 1e-05 s⁻¹ | < 1e-05 s⁻¹
G40A G63C | < 1e-05 s⁻¹ |  | < 1e-05 s⁻¹ |  | 
G7A A48C G59A A64G | < 1e-05 s⁻¹ | < 1e-05 s⁻¹ |  |  | 
A14G C19A A20G G21A G60A | < 1e-05 s⁻¹ |  |  |  | 
C8G U56A | < 1e-05 s⁻¹ |  | < 1e-05 s⁻¹ | < 1e-05 s⁻¹ | 
C16U U45A | 0.00211 ± 0.00039 s⁻¹ | 0.0689 ± 0.015 s⁻¹ | 0.0159 ± 0.003 s⁻¹ | 0.0183 ± 0.0057 s⁻¹ | 
G37U G43C U65C | < 1e-05 s⁻¹ | < 1e-05 s⁻¹ | < 1e-05 s⁻¹ |  | 
A36G G41A | < 1e-05 s⁻¹ | < 1e-05 s⁻¹ | < 1e-05 s⁻¹ | < 1e-05 s⁻¹ | < 1e-05 s⁻¹
U54A C71U | 0.00124 ± 0.00023 s⁻¹ | 0.0214 ± 0.01 s⁻¹ | 0.00337 ± 0.00063 s⁻¹ | 0.00313 ± 0.00083 s⁻¹ | 0.00159 ± 0.00033 s⁻¹
A6G U49C | < 1e-05 s⁻¹ |  | < 1e-05 s⁻¹ | < 1e-05 s⁻¹ | < 1e-05 s⁻¹
G44C G59C C61A | < 1e-05 s⁻¹ | < 1e-05 s⁻¹ | < 1e-05 s⁻¹ | < 1e-05 s⁻¹ | < 1e-05 s⁻¹
A39U G40C G43U | < 1e-05 s⁻¹ | < 1e-05 s⁻¹ |  |  | 
G29C U47G C68G | 7.83e-05 ± 2.3e-05 s⁻¹ | 3.71e-05 ± 1.3e-05 s⁻¹ |  |  | 
A6C U46G | < 1e-05 s⁻¹ |  |  |  | < 1e-05 s⁻¹
A36G U56C | < 1e-05 s⁻¹ |  | < 1e-05 s⁻¹ | < 1e-05 s⁻¹ | < 1e-05 s⁻¹
G7A C11G A12U A42C G44A G51C A53U C71U | < 1e-05 s⁻¹ | < 1e-05 s⁻¹ |  |  | 

Variant | self-cleavage kobs at 40 uM GlcN6P (glucosamine-6-phosphate [1]) | self-cleavage kobs at 10000 uM GlcN6P (glucosamine-6-phosphate [2]) | self-cleavage kobs at 640 uM GlcN6P (glucosamine-6-phosphate [3]) | self-cleavage kobs at 2500 uM GlcN6P (glucosamine-6-phosphate [4]) | self-cleavage kobs at 160 uM GlcN6P (glucosamine-6-phosphate [5])
A36G C58A | < 1e-05 s⁻¹ | < 1e-05 s⁻¹ |  | < 1e-05 s⁻¹ | 
G44U U49C U57A | < 1e-05 s⁻¹ |  | < 1e-05 s⁻¹ |  | 
C16A A48G | < 1e-05 s⁻¹ | < 1e-05 s⁻¹ | < 1e-05 s⁻¹ | < 1e-05 s⁻¹ | 
G7A C8G A12C | < 1e-05 s⁻¹ |  |  |  | 
U47G U56A C58U A64G U69A C70A | 5.21e-05 ± 2.2e-05 s⁻¹ | 3.66e-05 ± 1.4e-05 s⁻¹ |  |  | 
G32C G38C G60C C67G | < 1e-05 s⁻¹ | < 1e-05 s⁻¹ | < 1e-05 s⁻¹ |  | 
U49G G51A | < 1e-05 s⁻¹ | < 1e-05 s⁻¹ | < 1e-05 s⁻¹ | < 1e-05 s⁻¹ | < 1e-05 s⁻¹
A12U G13C C34U G62A U65G | < 1e-05 s⁻¹ |  |  |  | 
A6G C8U | < 1e-05 s⁻¹ | < 1e-05 s⁻¹ |  | < 1e-05 s⁻¹ | 
A6U G13A A14U | < 1e-05 s⁻¹ | < 1e-05 s⁻¹ |  |  | < 1e-05 s⁻¹
G41C A48C | < 1e-05 s⁻¹ | < 1e-05 s⁻¹ | < 1e-05 s⁻¹ | < 1e-05 s⁻¹ | 
C10G U30A C71G | < 1e-05 s⁻¹ |  |  |  | 
A6U C58A G59C A64G | < 1e-05 s⁻¹ | < 1e-05 s⁻¹ |  |  | 
U46C C61U | < 1e-05 s⁻¹ |  | < 1e-05 s⁻¹ | < 1e-05 s⁻¹ | < 1e-05 s⁻¹
C8A G35C | < 1e-05 s⁻¹ | < 1e-05 s⁻¹ | < 1e-05 s⁻¹ | < 1e-05 s⁻¹ | < 1e-05 s⁻¹
A15U U30G G41U | 0.000122 ± 2.7e-05 s⁻¹ | 0.0015 ± 0.00032 s⁻¹ |  | 0.000705 ± 0.00027 s⁻¹ | 
C61A U69A | < 1e-05 s⁻¹ | < 1e-05 s⁻¹ |  |  | 
C16U C50G | 4.26e-05 ± 1.3e-05 s⁻¹ |  | 4.35e-05 ± 1.3e-05 s⁻¹ |  | 3.28e-05 ± 1.4e-05 s⁻¹
A48G A53G C68G | 6.75e-05 ± 2.2e-05 s⁻¹ | 5.82e-05 ± 1.7e-05 s⁻¹ |  |  | 
C10G A52C U56A C71U | < 1e-05 s⁻¹ |  |  |  | 
G41U G62C C70U | < 1e-05 s⁻¹ | < 1e-05 s⁻¹ | < 1e-05 s⁻¹ |  | 
G9C A39C G44C | < 1e-05 s⁻¹ |  |  |  | 
